In PMC3978581:

Experiments:
[1] = target: Human prolactin receptor, endogenous on human breast cancer cell lines (human (endogenous in T47D, SKBR3, MDA-MB-468, MCF-7, BT474)) (UniProt P16471)
[2] = target: Human prolactin receptor, endogenous on human breast cancer cell lines (human (endogenous in T47D, SKBR3, MDA-MB-468, MCF-7, BT474)) (UniProt P16471); remark: listed apart in the source

Sequence of UniProt P16471 (P16471 25-622, stated change not applied): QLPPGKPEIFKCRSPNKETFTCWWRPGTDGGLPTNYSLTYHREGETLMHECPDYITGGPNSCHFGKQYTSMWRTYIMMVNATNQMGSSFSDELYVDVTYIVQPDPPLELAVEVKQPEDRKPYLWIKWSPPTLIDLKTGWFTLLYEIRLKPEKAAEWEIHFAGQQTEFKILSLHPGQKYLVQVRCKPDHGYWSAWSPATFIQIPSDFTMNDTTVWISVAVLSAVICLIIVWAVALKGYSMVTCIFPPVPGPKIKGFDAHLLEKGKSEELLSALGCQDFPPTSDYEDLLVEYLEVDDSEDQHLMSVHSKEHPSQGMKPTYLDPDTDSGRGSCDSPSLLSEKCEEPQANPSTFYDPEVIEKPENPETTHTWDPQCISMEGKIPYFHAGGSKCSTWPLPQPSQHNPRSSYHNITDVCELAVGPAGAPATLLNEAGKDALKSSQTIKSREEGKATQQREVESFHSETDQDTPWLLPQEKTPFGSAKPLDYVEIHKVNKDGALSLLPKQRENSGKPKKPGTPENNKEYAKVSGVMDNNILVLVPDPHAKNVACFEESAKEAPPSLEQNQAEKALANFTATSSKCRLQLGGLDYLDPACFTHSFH

loss of prolactin-stimulated Stat5 and Erk phosphorylation in T47D and SKBR3 cells over pHe 7.4 to 6.6; percent diminished at pHe 6.8 against pHe 7.4 [1]: > 80%
EC50 of prolactin (1 to 100 nM, 15 min) for Stat5 tyrosine phosphorylation in SKBR3 cells at pHe 6.8 [2]: 119 nM
EC50 of prolactin (1 to 100 nM, 15 min) for Stat5 tyrosine phosphorylation in SKBR3 cells at pHe 7.4 [2]: 3.3 nM
EC50 of prolactin (1 to 100 nM, 15 min) for Stat5 tyrosine phosphorylation in T47D cells at pHe 6.8 [2]: 37.8 nM
EC50 of prolactin (1 to 100 nM, 15 min) for Stat5 tyrosine phosphorylation in T47D cells at pHe 7.4 [2]: 3.7 nM
Substance: Recombinant human prolactin (from UniProt P01236 29-227) (ligand)
